Measurements taken from patent publication US20240294646A1.
Values belong to the substance of their own block, whether it stands above or below them.

Legend:
[1] = molecular target: Soluble FcγRIIaR extracellular domain with C-terminal 10×His tag (UniProt P12318); experiment: SPR (Biacore 4000), antibody captured on immobilised HER2, soluble receptor as analyte
[2] = molecular target: Soluble FcγRIIb extracellular domain with C-terminal 10×His tag (UniProt P31994); experiment: as above
[3] = molecular target: FcγRIIaR, soluble extracellular domain (UniProt P12318); experiment: SPR (Biacore 4000, Protocol 2): antibody captured on immobilised HER2, soluble receptor as analyte
FcγRIIaR, soluble extracellular domain, sequence (P12318 34-217): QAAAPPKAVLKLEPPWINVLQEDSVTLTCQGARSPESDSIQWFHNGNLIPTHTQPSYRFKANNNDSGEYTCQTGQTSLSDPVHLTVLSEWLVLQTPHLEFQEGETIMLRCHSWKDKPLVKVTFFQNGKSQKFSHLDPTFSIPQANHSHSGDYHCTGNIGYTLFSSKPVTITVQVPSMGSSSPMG

[4] = molecular target: FcγRIIb, soluble extracellular domain (UniProt P31994); experiment: as above
FcγRIIb, soluble extracellular domain, sequence (P31994 43-217): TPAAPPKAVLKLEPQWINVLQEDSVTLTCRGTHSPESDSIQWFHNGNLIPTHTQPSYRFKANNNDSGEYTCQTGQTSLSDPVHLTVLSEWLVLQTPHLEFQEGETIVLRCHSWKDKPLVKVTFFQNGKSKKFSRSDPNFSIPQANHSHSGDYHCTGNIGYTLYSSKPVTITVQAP

FcγRIIaR [5] = molecular target: FcγRIIaR (UniProt P12318); experiment: SPR; trastuzumab FSA variant against FSA WT v21653
FcγRIIaR, sequence (P12318 34-217): as the sequence (P12318 34-217) above

FcγRIIb [6] = molecular target: FcγRIIb (UniProt P31994); experiment: SPR; trastuzumab FSA variant against FSA WT v21653
Target sequence in this assay (P31994 43-217): as the sequence (P31994 43-217) above

C1q (human) = C1q (human) (UniProt P02745); experiment: ELISA; antibody coated, human C1q added, signal as % of WT
C1q (human), sequence (P02745 23-245 limits assumed, chain 1 of 3): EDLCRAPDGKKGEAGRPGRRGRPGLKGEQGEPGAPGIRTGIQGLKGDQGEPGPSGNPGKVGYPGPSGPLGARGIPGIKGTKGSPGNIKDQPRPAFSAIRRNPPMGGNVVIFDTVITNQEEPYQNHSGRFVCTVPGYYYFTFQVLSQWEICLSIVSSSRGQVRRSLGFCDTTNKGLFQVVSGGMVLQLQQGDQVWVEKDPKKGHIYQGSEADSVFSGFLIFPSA
C1q (human), sequence (P02746 28-253 limits assumed, chain 2 of 3, further chain): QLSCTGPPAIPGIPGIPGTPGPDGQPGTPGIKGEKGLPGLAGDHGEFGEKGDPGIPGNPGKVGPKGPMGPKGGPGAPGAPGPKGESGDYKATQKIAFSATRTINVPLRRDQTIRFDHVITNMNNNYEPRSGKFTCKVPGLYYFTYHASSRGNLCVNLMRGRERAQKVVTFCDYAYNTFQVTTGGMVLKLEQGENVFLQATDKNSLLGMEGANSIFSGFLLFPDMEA
C1q (human), sequence (P02747 29-245 limits assumed, chain 3 of 3, further chain): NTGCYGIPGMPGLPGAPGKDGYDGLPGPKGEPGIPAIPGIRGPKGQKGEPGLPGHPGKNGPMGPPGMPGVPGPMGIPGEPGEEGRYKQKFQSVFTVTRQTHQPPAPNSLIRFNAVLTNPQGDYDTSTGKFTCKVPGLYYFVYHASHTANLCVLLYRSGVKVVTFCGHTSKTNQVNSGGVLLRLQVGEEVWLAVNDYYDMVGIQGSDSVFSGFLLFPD

FcγRIIb [7] = molecular target: FcγRIIb (UniProt P31994); experiment: SPR; ratio of IIb-fold to IIaR-fold, FcγRIIaR as comparison receptor
Target sequence in this assay (P31994 43-217): as the sequence (P31994 43-217) above

FcγRIIb [8] = molecular target: FcγRIIb (UniProt P31994); experiment: SPR (Protocol 1); IIb-Fold over IIaR-Fold
Target sequence in this assay (P31994 43-217 limits assumed): as the sequence (P31994 43-217) above

FcγRIIaR [9] = molecular target: FcγRIIaR (UniProt P12318); experiment: SPR (Protocol 1), one-armed antibody captured on HER2, receptor as analyte; fold over wild-type
FcγRIIb [10] = molecular target: FcγRIIb (UniProt P31994); experiment: as above
Target sequence in this assay (P31994 43-217 limits assumed): as the sequence (P31994 43-217) above

Soluble FcγRIIaR extracellular domain with C-terminal 10×His tag, sequence (P12318 other isoform, or with tags, fused parts or gaps): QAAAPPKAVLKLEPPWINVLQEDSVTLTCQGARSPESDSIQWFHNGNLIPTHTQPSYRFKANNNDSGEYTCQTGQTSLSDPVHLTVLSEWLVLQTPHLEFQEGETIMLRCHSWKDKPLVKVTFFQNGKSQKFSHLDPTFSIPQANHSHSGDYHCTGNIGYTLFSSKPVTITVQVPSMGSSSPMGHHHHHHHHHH
Soluble FcγRIIb extracellular domain with C-terminal 10×His tag, sequence (P31994 other isoform, or with tags, fused parts or gaps): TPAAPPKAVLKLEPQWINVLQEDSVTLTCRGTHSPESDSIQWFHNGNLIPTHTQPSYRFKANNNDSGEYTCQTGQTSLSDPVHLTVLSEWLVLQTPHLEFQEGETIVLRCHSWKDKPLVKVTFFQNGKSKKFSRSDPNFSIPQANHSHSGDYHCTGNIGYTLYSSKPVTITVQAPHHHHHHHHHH

Kd [1]: 79 nM | Kd [2]: 33 nM
Substance: Variant 26714 (A_D270L_strat2), one-armed trastuzumab antibody

Kd [1]: 81 nM | Kd [2]: 25 nM
Substance: Variant 26715 (A_D270I_strat2), one-armed trastuzumab antibody

Kd [1]: 48 nM | Kd [2]: 17 nM
Substance: Variant 26716 (A_D270F_strat2), one-armed trastuzumab antibody

Kd [1]: 83 nM | Kd [2]: 27 nM
Substance: Variant 26717 (A_D270W_strat2), one-armed trastuzumab antibody

Kd [1]: 79 nM | Kd [2]: 29 nM
Substance: Variant 26720 (A_D270S_strat2), one-armed trastuzumab antibody

Kd [3]: 77 nM | Kd [4]: 21 nM
Substance: Variant 26722 (A_D270N_strat2), one-armed trastuzumab antibody with heterodimeric IgG1 Fc

Kd [4]: 89 nM
Substance: Variant 26724 (A_D270R_strat2), one-armed trastuzumab antibody with heterodimeric IgG1 Fc

Kd [3]: 180 nM | Kd [4]: 88 nM
Substance: Variant 26727 (A_D270P_strat2), one-armed trastuzumab antibody with heterodimeric IgG1 Fc

Kd [3]: 64 nM | Kd [4]: 22 nM
Substance: Variant 26728 (A_P271G_strat2), one-armed trastuzumab antibody with heterodimeric IgG1 Fc

Kd [3]: 93 nM | Kd [4]: 34 nM
Substance: Variant 26729 (A_P271A_strat2), one-armed trastuzumab antibody with heterodimeric IgG1 Fc

Kd [3]: 85 nM | Kd [4]: 27 nM
Substance: Variant 26730 (A_P271V_strat2), one-armed trastuzumab antibody with heterodimeric IgG1 Fc

Kd [3]: 68 nM | Kd [4]: 22 nM
Substance: Variant 26731 (A_P271L_strat2), one-armed trastuzumab antibody with heterodimeric IgG1 Fc

Kd [3]: 70 nM
Substance: Variant 26732 (A_P271I_strat2), one-armed trastuzumab antibody with heterodimeric IgG1 Fc

Kd [3]: 87 nM | Kd [4]: 31 nM
Substance: Variant 26733 (A_P271F_strat2), one-armed trastuzumab antibody with heterodimeric IgG1 Fc

Kd [4]: 29 nM
Substance: Variant 26740 (A_P271D_strat2), one-armed trastuzumab antibody with heterodimeric IgG1 Fc

IIaR-fold (fold change in affinity over wild-type) (FcγRIIaR [5]): 14 fold over WT | IIb-fold (fold change in affinity over wild-type) (FcγRIIb [6]): 452 fold over WT | C1q Binding (% WT) (C1q (human)): 192 % WT | IIb Selectivity (IIb-Fold/IIaR-Fold) (FcγRIIb [7]): 33
Substance: Variant 32259 (trastuzumab FSA; chain A A237N_strat1, chain B G330*K_strat1) (antibody)

IIaR-fold (fold change in affinity over wild-type) (FcγRIIaR [5]): 22 fold over WT | IIb-fold (fold change in affinity over wild-type) (FcγRIIb [6]): 697 fold over WT | C1q Binding (% WT) (C1q (human)): 210 % WT | IIb Selectivity (IIb-Fold/IIaR-Fold) (FcγRIIb [7]): 31
Substance: Variant 32262 (trastuzumab FSA; chain A L234T_strat1, chain B G330*K_strat1) (antibody)

IIaR-fold (fold change in affinity over wild-type) (FcγRIIaR [5]): 36 fold over WT | IIb-fold (fold change in affinity over wild-type) (FcγRIIb [6]): 1120 fold over WT | C1q Binding (% WT) (C1q (human)): 224 % WT | IIb Selectivity (IIb-Fold/IIaR-Fold) (FcγRIIb [7]): 31
Substance: Variant 32265 (trastuzumab FSA; chain A S239A_strat1, chain B G330*K_strat1) (antibody)

IIb/IIaR Selectivity (FcγRIIb [8]): 2.1 | IIaR-Fold (fold affinity over wild-type) (FcγRIIaR [9]): 0.41 fold | IIb-Fold (fold affinity over wild-type) (FcγRIIb [10]): 0.85 fold
Substance: variant 16489, one-armed trastuzumab antibody (Scaffold 2), chain A E269K, chain B G236D

IIb/IIaR Selectivity (FcγRIIb [8]): 2.48 | IIaR-Fold (fold affinity over wild-type) (FcγRIIaR [9]): 0.1 fold | IIb-Fold (fold affinity over wild-type) (FcγRIIb [10]): 0.24 fold
Substance: variant 16491, one-armed trastuzumab antibody (Scaffold 2), chain B E269K_G236N

IIb/IIaR Selectivity (FcγRIIb [8]): 1.83 | IIaR-Fold (fold affinity over wild-type) (FcγRIIaR [9]): 0.07 fold | IIb-Fold (fold affinity over wild-type) (FcγRIIb [10]): 0.13 fold
Substance: variant 16492, one-armed trastuzumab antibody (Scaffold 2), chain A E269K, chain B G236N

IIb/IIaR Selectivity (FcγRIIb [8]): 1.45 | IIaR-Fold (fold affinity over wild-type) (FcγRIIaR [9]): 0.19 fold | IIb-Fold (fold affinity over wild-type) (FcγRIIb [10]): 0.27 fold
Substance: variant 16531, one-armed trastuzumab antibody (Scaffold 2), chain B E269K_S267I

IIb/IIaR Selectivity (FcγRIIb [8]): 1.84 | IIaR-Fold (fold affinity over wild-type) (FcγRIIaR [9]): 0.51 fold | IIb-Fold (fold affinity over wild-type) (FcγRIIb [10]): 0.95 fold
Substance: variant 16532, one-armed trastuzumab antibody (Scaffold 2), chain A E269K, chain B S267I

IIb/IIaR Selectivity (FcγRIIb [8]): 1.83 | IIaR-Fold (fold affinity over wild-type) (FcγRIIaR [9]): 0.19 fold | IIb-Fold (fold affinity over wild-type) (FcγRIIb [10]): 0.35 fold
Substance: variant 16549, one-armed trastuzumab antibody (Scaffold 2), chain B E269K_L234D

IIb/IIaR Selectivity (FcγRIIb [8]): 0.97 | IIaR-Fold (fold affinity over wild-type) (FcγRIIaR [9]): 0.42 fold | IIb-Fold (fold affinity over wild-type) (FcγRIIb [10]): 0.4 fold
Substance: variant 16571, one-armed trastuzumab antibody (Scaffold 2), chain A E269K, chain B L234F

IIb/IIaR Selectivity (FcγRIIb [8]): 1.89 | IIaR-Fold (fold affinity over wild-type) (FcγRIIaR [9]): 0.11 fold | IIb-Fold (fold affinity over wild-type) (FcγRIIb [10]): 0.21 fold
Substance: variant 16576, one-armed trastuzumab antibody (Scaffold 2), chain B E269K_A327G_A330S_P331S_L234F_H268Q_K274Q

IIb/IIaR Selectivity (FcγRIIb [8]): 1.26 | IIaR-Fold (fold affinity over wild-type) (FcγRIIaR [9]): 0.82 fold | IIb-Fold (fold affinity over wild-type) (FcγRIIb [10]): 1.03 fold
Substance: variant 16577, one-armed trastuzumab antibody (Scaffold 2), chain A E269K, chain B A327G_A330S_P331S_L234F_H268Q_K274Q

Second part, the substance before the results:

Substance: Variant 26713 (A_D270V_strat2), one-armed trastuzumab antibody
Kd [1]: 89 nM | Kd [2]: 41 nM

Substance: Variant 26718 (A_D270Y_strat2), one-armed trastuzumab antibody
Kd [1]: 69 nM | Kd [2]: 26 nM

Substance: Variant 26719 (A_D270T_strat2), one-armed trastuzumab antibody
Kd [1]: 63 nM | Kd [2]: 23 nM

Substance: Variant 26721 (A_D270Q_strat2), one-armed trastuzumab antibody with heterodimeric IgG1 Fc
Kd [3]: 87 nM | Kd [4]: 28 nM

Substance: Variant 26723 (A_D270E_strat2), one-armed trastuzumab antibody with heterodimeric IgG1 Fc
Kd [3]: 42 nM | Kd [4]: 13 nM

Substance: Variant 26726 (A_D270H_strat2), one-armed trastuzumab antibody with heterodimeric IgG1 Fc
Kd [3]: 74 nM | Kd [4]: 23 nM

Substance: Variant 26734 (A_P271W_strat2), one-armed trastuzumab antibody with heterodimeric IgG1 Fc
Kd [3]: 72 nM | Kd [4]: 28 nM

Substance: Variant 26735 (A_P271Y_strat2), one-armed trastuzumab antibody with heterodimeric IgG1 Fc
Kd [3]: 110 nM | Kd [4]: 35 nM

Substance: Variant 26736 (A_P271T_strat2), one-armed trastuzumab antibody with heterodimeric IgG1 Fc
Kd [3]: 120 nM | Kd [4]: 47 nM

Substance: Variant 26737 (A_P271S_strat2), one-armed trastuzumab antibody with heterodimeric IgG1 Fc
Kd [3]: 90 nM | Kd [4]: 36 nM

Substance: Variant 26738 (A_P271Q_strat2), one-armed trastuzumab antibody with heterodimeric IgG1 Fc
Kd [3]: 77 nM | Kd [4]: 26 nM

Substance: Variant 26739 (A_P271N_strat2), one-armed trastuzumab antibody with heterodimeric IgG1 Fc
Kd [3]: 90 nM | Kd [4]: 28 nM

Substance: Variant 32254 (trastuzumab FSA; chain A S239H_strat1, chain B D329*I_F328*Y_strat1) (antibody)
IIaR-fold (fold change in affinity over wild-type) (FcγRIIaR [5]): 3 fold over WT | IIb-fold (fold change in affinity over wild-type) (FcγRIIb [6]): 159 fold over WT | C1q Binding (% WT) (C1q (human)): 159 % WT | IIb Selectivity (IIb-Fold/IIaR-Fold) (FcγRIIb [7]): 47

Substance: Variant 32258 (trastuzumab FSA; chain A A237L_strat1, chain B G330*K_strat1) (antibody)
IIaR-fold (fold change in affinity over wild-type) (FcγRIIaR [5]): 11 fold over WT | IIb-fold (fold change in affinity over wild-type) (FcγRIIb [6]): 476 fold over WT | C1q Binding (% WT) (C1q (human)): 201 % WT | IIb Selectivity (IIb-Fold/IIaR-Fold) (FcγRIIb [7]): 44

Substance: Variant 32264 (trastuzumab FSA; chain A L235D_strat1, chain B G330*K_strat1) (antibody)
IIaR-fold (fold change in affinity over wild-type) (FcγRIIaR [5]): 17 fold over WT | IIb-fold (fold change in affinity over wild-type) (FcγRIIb [6]): 557 fold over WT | C1q Binding (% WT) (C1q (human)): 146 % WT | IIb Selectivity (IIb-Fold/IIaR-Fold) (FcγRIIb [7]): 33

Substance: variant 16488, one-armed trastuzumab antibody (Scaffold 2), chain B E269K_G236D
IIb/IIaR Selectivity (FcγRIIb [8]): 0.91 | IIaR-Fold (fold affinity over wild-type) (FcγRIIaR [9]): 0.17 fold | IIb-Fold (fold affinity over wild-type) (FcγRIIb [10]): 0.16 fold

Substance: variant 16550, one-armed trastuzumab antibody (Scaffold 2), chain A E269K, chain B L234D
IIb/IIaR Selectivity (FcγRIIb [8]): 1.25 | IIaR-Fold (fold affinity over wild-type) (FcγRIIaR [9]): 0.63 fold | IIb-Fold (fold affinity over wild-type) (FcγRIIb [10]): 0.79 fold

Substance: variant 16570, one-armed trastuzumab antibody (Scaffold 2), chain B E269K_L234F
IIb/IIaR Selectivity (FcγRIIb [8]): 3.35 | IIaR-Fold (fold affinity over wild-type) (FcγRIIaR [9]): 0.11 fold | IIb-Fold (fold affinity over wild-type) (FcγRIIb [10]): 0.37 fold
